Drawing on PMC6416349, this text covers Kd for 1 substance.

pKd: −log10 of the molar value.

Common to all, as to assay: SPR; Biacore 3000, 25 °C; fungal protein immobilised on a CM5 chip by amine coupling (300 RU Eno1 and Mp65, 360 RU Als3); RgpA 10-100 nM injected at 20 µl/min; 10 mM HEPES, 150 mM NaCl, 0.005% surfactant, pH 7.4; global fit, 1:1 Langmuir model with baseline drift
The target in experiment [1] is C. albicans agglutinin-like sequence protein 3 (Als3), isolated from the hyphal cell wall (C. albicans) (UniProt Q59L12).
Experiment [2] has as its target C. albicans enolase 1 (Eno1) (C. albicans) (UniProt P30575).
Experiment [3] has as its target C. albicans cell wall mannoprotein 65 (Mp65) (C. albicans) (UniProt Q59XX2).
UniProt Q59XX2, sequence (Q59XX2 33-378): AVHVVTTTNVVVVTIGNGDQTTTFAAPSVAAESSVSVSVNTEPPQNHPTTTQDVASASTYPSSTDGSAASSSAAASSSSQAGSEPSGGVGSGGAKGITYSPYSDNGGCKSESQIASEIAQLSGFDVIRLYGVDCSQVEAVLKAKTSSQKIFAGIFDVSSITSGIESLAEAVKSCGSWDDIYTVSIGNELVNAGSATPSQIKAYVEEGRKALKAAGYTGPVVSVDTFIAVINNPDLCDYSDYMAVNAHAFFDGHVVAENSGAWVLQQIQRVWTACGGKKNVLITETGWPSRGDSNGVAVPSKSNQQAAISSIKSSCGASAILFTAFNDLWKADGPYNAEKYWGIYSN

UniProt Q59L12, sequence (Q59L12 18-1134): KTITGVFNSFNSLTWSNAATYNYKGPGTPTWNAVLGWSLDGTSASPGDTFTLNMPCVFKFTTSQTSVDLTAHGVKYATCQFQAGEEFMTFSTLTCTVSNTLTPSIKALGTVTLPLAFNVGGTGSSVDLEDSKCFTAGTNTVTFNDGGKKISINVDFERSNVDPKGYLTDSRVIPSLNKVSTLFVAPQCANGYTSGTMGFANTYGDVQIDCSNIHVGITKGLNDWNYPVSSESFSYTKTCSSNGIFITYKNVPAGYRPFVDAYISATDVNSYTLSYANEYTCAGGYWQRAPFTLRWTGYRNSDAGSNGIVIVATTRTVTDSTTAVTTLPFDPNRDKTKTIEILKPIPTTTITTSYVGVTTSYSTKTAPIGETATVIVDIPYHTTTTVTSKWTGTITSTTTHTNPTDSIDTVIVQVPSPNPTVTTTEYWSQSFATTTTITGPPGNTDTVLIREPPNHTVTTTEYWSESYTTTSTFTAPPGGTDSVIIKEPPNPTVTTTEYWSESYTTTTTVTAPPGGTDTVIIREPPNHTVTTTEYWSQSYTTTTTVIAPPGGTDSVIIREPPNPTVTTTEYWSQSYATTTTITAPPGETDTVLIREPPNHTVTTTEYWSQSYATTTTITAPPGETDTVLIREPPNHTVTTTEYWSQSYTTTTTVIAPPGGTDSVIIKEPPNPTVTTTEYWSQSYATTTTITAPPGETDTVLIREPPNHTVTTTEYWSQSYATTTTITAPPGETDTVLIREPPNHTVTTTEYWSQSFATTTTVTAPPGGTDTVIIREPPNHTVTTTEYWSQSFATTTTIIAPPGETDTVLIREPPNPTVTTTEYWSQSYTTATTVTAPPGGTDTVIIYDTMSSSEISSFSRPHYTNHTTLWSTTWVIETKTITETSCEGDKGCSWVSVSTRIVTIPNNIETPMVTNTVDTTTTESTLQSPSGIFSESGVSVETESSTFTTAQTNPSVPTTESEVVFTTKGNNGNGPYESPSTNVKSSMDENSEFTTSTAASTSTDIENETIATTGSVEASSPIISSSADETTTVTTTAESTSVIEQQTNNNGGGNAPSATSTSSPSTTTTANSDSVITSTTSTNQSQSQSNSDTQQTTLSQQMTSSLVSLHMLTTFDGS
UniProt P30575, sequence (P30575 whole entry): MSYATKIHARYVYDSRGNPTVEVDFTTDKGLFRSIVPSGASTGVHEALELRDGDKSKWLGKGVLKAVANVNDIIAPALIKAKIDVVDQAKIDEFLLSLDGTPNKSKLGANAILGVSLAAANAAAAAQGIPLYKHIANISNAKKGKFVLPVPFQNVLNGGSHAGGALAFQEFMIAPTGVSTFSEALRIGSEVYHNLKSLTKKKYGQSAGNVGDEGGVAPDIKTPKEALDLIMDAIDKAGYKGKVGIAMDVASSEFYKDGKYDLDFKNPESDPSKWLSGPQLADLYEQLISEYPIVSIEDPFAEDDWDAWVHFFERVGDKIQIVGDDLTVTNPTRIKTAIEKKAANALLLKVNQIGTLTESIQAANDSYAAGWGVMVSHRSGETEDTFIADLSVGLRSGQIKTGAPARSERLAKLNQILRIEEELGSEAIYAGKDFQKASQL

Regarding “P. gingivalis gingipain RgpA (HRgpA) (from UniProt P28784 228-991) (enzyme)”, the negative-log Kd (pKd) in experiment [1] is 8.00; in experiment [2], 8.53; in experiment [3] it was 8.03.
